Test results as given in EP4361176A1.
Positions count from the first letter of the chain named.

T1: hCTLA4-His-BAP (human)
T1 sequence (chain, biotin on the BAP-tag): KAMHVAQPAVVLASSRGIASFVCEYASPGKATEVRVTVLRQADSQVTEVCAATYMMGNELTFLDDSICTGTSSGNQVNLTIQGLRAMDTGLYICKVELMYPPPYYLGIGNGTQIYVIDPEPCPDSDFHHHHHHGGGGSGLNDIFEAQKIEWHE

B1: 04H1389-G1m/04L1086-lam1 (antibody, human IgG1, lambda, V domains shown)
VH: EVQLVESGGGLVKPGGSLRLSCAASGFTFSSKTMNWVRQAPGKGLEWVSSISTQSHYIYYAESVKGRFTISRDNAKNSLYLQMNSLRAEDTAVYYCARYGKREDMLWVFDYWGQGTLVTVSS
VL: QSALTQPPSASGSPGQTVTISCDGPSTGVGDYNYVHWYQQHPGKAPKLMIYFTSKKPSGVPDRFSGSKSGNTASLTVSGLQAEDEADYFCQTYAAPLGPMFGGGTKLTVLG
B2: 04H1382-G1m/04L1086-lam1 (antibody, human IgG1, lambda, V domains shown)
VH: B1 VH with E62R
VL: B1 VL
B3: ABAM001 (antibody, human IgG1, V domains shown)
VH: EVQLVESGGDLVKPGGGLRLSCAASGFTFSSYTMHWVRQAPGKGLEWVSSISSRSRYKYYADSVKGRFTISRDNAKNSLYLQMNSLRAEDTAVYYCARFGIKNKRNWVLDYWGQGTLVTVSS
VL: QSALTQPPSASGSPGQTVTISCTGTSTDVGAYNYVSWYQQHPGKAPKLMIYQVSKRPSGVPDRFSGSKSGNTASLTVSGLQAEDEADYFCSLYTTRPQLAFGGGTKLTVL
B4: ABAM005 (antibody, human IgG1, V domains shown)
VH: EVQLVESGGDLVKPGGGLRLSCAASGFTFSGYTMNWVRQAPGKGLEWVSSISSRSNYISYADSVKGRFTISRDNAKNSLYLQMNSLRAEDTAVYYCARYGALNHMLWVFDYWGQGTLVTVSS
VL: B3 VL with Q52S, V53T, T94R, T95Y, R96A, P97Q, Q98G, L99V, A100V
B5: ABAM006 (antibody, human IgG1, V domains shown)
VH: B3 VH with S31T, R56G, Y57H, K58A, Y59H, I101R, N103K, N106L, L109F
VL: B3 VL with A31F, V53N, L92T, Y93N, T94R, T95A, R96A, P97R, Q98S, L99V
B6: ABAM002 (antibody, human IgG1, V domains shown)
VH: B4 VH with G31S, N56T, I58A, S59H, Y99F, A101G, L102R, N103G, M105L
VL: B3 VL with A31T, V53G, L92T, Y93V, T94S, T95G, R96D, P97F, Q98H, L99V
B7: ABAM003 (antibody, human IgG1, V domains shown)
VH: B3 VH with S31G, K58A, Y59S, K104H, R105L, L109F
VL: QSALTQPPSASGSPGQTVTISCTGTSSDVGDYNYVSWYQQHPGKAPKLMIYGVSKRPSGVPDRFSGSKSGNTASLTVSGLQAEDEADYFCSTVSTSHSPVFGGGTKLTVL
B8: 04H1389-Ks473/04L1615-k0MT//04H1389-Hs482/04L1615-k0MT (antibody)
heavy 1: EVQLVESGGGLVKPGGSLRLSCAASGFTFSSKTMNWVRQAPGKGLEWVSSISTQSHYIYYAESVKGRFTISRDNAKNSLYLQMNSLRAEDTAVYYCARYGKREDMLWVFDYWGQGTLVTVSSASTKGPSVFPLAPSSKSTSGGTAALGCLVKDYFPEPVTVSWNSGALTSGVHTFPAVLQSSGLYSLSSVVTVPSSSLGTQTYICNVNHKPSNTKVDKRVEPKSCDKTHTCPPCPAPEFQWGPMVFLFPPKPKDVLMISRTPEVTCVVVDVSDEEPEVKFNWYVDGVEVHNAKTKPREEQYNATYRVVSVLPVLHQDWLNGKEYKCKVSNDALPAPIEKTISKAKGQPREPQVYTLPPSREEMTKNQVSLWCLVKGFYPSDIAVEWESNGQPENNYKTTPPVLDSDGSFFLYSKLTVDKSRWQQGNVFSCSVMHEALHAHTTRKELSLSP
heavy 2: EVQLVESGGGLVKPGGSLRLSCAASGFTFSSKTMNWVRQAPGKGLEWVSSISTQSHYIYYAESVKGRFTISRDNAKNSLYLQMNSLRAEDTAVYYCARYGKREDMLWVFDYWGQGTLVTVSSASTKGPSVFPLAPSSKSTSGGTAALGCLVKDYFPEPVTVSWNSGALTSGVHTFPAVLQSSGLYSLSSVVTVPSSSLGTQTYICNVNHKPSNTKVDKRVEPKSCDKTHTCPPCPAPELLAGPSVFLFPPKPKDVLMISRTPEVTCVVVDVSHEEPEVKFNWYVDGVEVHNAKTKPREEQYNATYRVVSVLPVLHQDWLNGKEYKCKVSNDALPKPDEETISKAKGQPREPQVYTLPPSREEMTKNQVSLSCAVKGFYPSDIAVEWESNGQPENNYKTTPPVLDSDGSFFLVSKLTVDKSRWQQGNVFSCSVMHEALHAHTTRKELSLSP
light: DIVMTQSPLSLPVTPGEPASISCQGPSTGVGDYNYVHWYQQKPGQAPRLLIYFTSKKPSGVPDRFSGSGSGTDFTLKISRVEAEDVGVYYCQTYAAPLGPMFGQGTKLEIKRTVAAPSVFIFPPSDEQLKSGTASVVCLLNNFYPREAKVQWKVDNALQSGNSQESVTEQDSKDSTYSLSSTLTLSKADYEKHKVYACEVTHQGLSSPVTKSFNRGEC
B9: 04H1389-Km481/04L1615-k0MT//04H1389-Hm498/04L1615-k0MT (antibody)
heavy 1: B8 heavy 1 with I337E, Y354C
heavy 2: B8 heavy 2 with K335A, D337E, E361C
light: B8 light
B10: 04H1389-Ks461/04L1615-k0MT//04H1389-Hs443/04L1615-k0MT (antibody, human IgG1, kappa)
heavy 1: B8 heavy 1 with I337E, A439N, T441Y, R443Q, E445S
heavy 2: B8 heavy 2 with K335A, D337E, A439N, T441Y, R443Q, E445S
light: B8 light
B11: 04H1389-Ks462/04L1615-k0MT//04H1389-Hs445/04L1615-k0MT (antibody, human IgG1, kappa)
heavy 1: B8 heavy 1 with A439N, T441Y, R443Q, E445S
heavy 2: B8 heavy 2 with A439N, T441Y, R443Q, E445S
light: B8 light
B12: 04H1389-Km462/04L1615-k0MT//04H1389-Hm445/04L1615-k0MT (antibody, human IgG1, kappa)
heavy 1: B8 heavy 1 with Y354C, A439N, T441Y, R443Q, E445S
heavy 2: B8 heavy 2 with E361C, A439N, T441Y, R443Q, E445S
light: B8 light
B13: 04H1389-Km461/04L1615-k0MT//04H1389-Hm443/04L1615-k0MT (antibody, human IgG1, kappa)
heavy 1: B8 heavy 1 with I337E, Y354C, A439N, T441Y, R443Q, E445S
heavy 2: B8 heavy 2 with K335A, D337E, E361C, A439N, T441Y, R443Q, E445S
light: B8 light
B14: 04H1654-KT461/04L1612-lam1//04H1656-HT443/04L1612-lam1 (antibody, human IgG1, lambda)
heavy 1: QVQLVESGGGVVQPGGSLRLSCAASGFTFSSKTMNWVRQAPGKGLEWVSSISTQSHYIYYARSVRGRFTISRDNAKNSLYLQMNSLRAEDTAVYYCARYGKREDMLWVFDYWGQGTLVTVSSASTKGPSVFPLAPSSKSTSGGTAALGCLVKDYFPEPVTVSWNSGALTSGVHTFPAVLQSSGLYSLSSVVTVPSSSLGTQTYICNVNHKPSNTKVDKRVEPKSCDKTHTCPPCPAPEFQWGPMVFLFPPKPKDVLMISRTPEVTCVVVDVSDEEPEVKFNWYVDGVEVHNAKTKPREEQYNATYRVVSVLPVLHQDWLNGKEYKCKVSNDALPAPEEKTISKAKGQPREPQVYTLPPSRKEMTKNQVSLTCLVKGFYPSDIAVEWESNGQPENNYKTTPPVLDSDGSFFLYSKLTVDKSRWQQGNVFSCSVMHEALHNHYTQKSLSLSP
heavy 2: B14 heavy 1 with R62E, K101A, F239L, Q240L, W241A, M244S, D273H, K339E, K361E, K444E
light: QSALTQPPSASGSPGQSVTISCEGPSTGVGDYTYVHWYQQHPGKAPKLMIYFTSKKPSGVPDRFSGSKSGNTASLTVSGLQAEDEADYYCQTYAAPLGPMFGGGTKLTVLGQPKAAPSVTLFPPSSEELQANKATLVCLISDFYPGAVTVAWKADSSPVKAGVETTTPSKQSNNKYAASSYLSLTPEQWKSHRSYSCQVTHEGSTVEKTVAPTECS
B15: 04H1654-KT481/04L1612-lam1//04H1656-HT498/04L1612-lam1 (antibody)
heavy 1: B14 heavy 1 with N439A, Y441T, Q443R, S445E
heavy 2: QVQLVESGGGVVQPGGSLRLSCAASGFTFSSKTMNWVRQAPGKGLEWVSSISTQSHYIYYAESVRGRFTISRDNAKNSLYLQMNSLRAEDTAVYYCARYGAREDMLWVFDYWGQGTLVTVSSASTKGPSVFPLAPSSKSTSGGTAALGCLVKDYFPEPVTVSWNSGALTSGVHTFPAVLQSSGLYSLSSVVTVPSSSLGTQTYICNVNHKPSNTKVDKRVEPKSCDKTHTCPPCPAPELLAGPSVFLFPPKPKDVLMISRTPEVTCVVVDVSHEEPEVKFNWYVDGVEVHNAKTKPREEQYNATYRVVSVLPVLHQDWLNGKEYKCKVSNDALPAPEEETISKAKGQPREPQVYTLPPSREEMTKNQVSLTCLVKGFYPSDIAVEWESNGQPENNYKTTPPVLDSDGSFFLYSKLTVDKSRWQQGNVFSCSVMHEALHAHTTREELSLSP
light: B14 light
B16: 04H1654-KT473/04L1612-lam1//04H1656-HT482/04L1612-lam1 (antibody)
heavy 1: B14 heavy 1 with E337I, N439A, Y441T, Q443R, S445E
heavy 2: B15 heavy 2 with A335K, E337D
light: B14 light

Biological target: human CTLA4 (soluble analyte of the Biacore assays of Reference Example 3-3) (human) (UniProt P16410)
Assay: SPR Biacore T200, 10 uM ATP

fold enhanced binding vs parent 04H1207-G1m/04L1086-lam1 [fold] | fold enhanced binding vs parent 04H1208-G1m/04L1086-lam1 [fold] | Binder
10 |  | B1
 | 10 | B2

Biological target: T1, hCTLA4-His-BAP (human)
Assay: IgG ELISA, absorbance with / without AMP

S/N | Binder
> 1.45 | B3
4.46 | B4
3.86 | B5
> 36 | B6
> 1.57 | B7

Biological target: human FcγRIIb extracellular domain with C-terminal His-tag (human) (UniProt P31994)
Sequence (P31994 43-217): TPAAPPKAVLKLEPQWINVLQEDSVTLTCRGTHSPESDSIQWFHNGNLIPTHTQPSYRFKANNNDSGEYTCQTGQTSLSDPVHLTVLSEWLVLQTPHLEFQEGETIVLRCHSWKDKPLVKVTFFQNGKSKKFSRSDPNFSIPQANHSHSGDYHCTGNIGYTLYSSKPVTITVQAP
Assay: SPR (Biacore T200), FcγRIIb, amount bound per unit captured antibody

Binding amount | Binder
0.026 | B8
0.021 | B9
0.024 | B10
0.03 | B11
0.029 | B12
0.024 | B13

Biological target: human FcγRIIb extracellular domain with C-terminal His-tag (human) (UniProt P31994)
Assay: SPR; binding amount / that of 04H1389-G1m/04L1615-k0MT

Relative binding amount | Binder
2.3 | B8
1.9 | B9
2.1 | B10
2.6 | B11
2.6 | B12
2.1 | B13

Biological target: human FcγRIIb extracellular domain with C-terminal His-tag (human) (UniProt P31994)
Assay: SPR (Biacore T200), FcγRIIb 1000 nM, amount bound per unit captured antibody

Binding amount | Binder
0.025 | B14
0.022 | B15
0.026 | B16

Biological target: T1, hCTLA4-His-BAP (human)
Assay: IgG ELISA, 2.5 ug/mL IgG, no AMP

450 nm Absorbance | Binder
3.46 | B3
0.069 | B4
0.776 | B5
0.139 | B6
3.18 | B7

Biological target: T1, hCTLA4-His-BAP (human)
Assay: IgG ELISA, 2.5 ug/mL IgG, 1 mM AMP

450 nm Absorbance | Binder
0.303 | B4
3 | B5

Biological target: T1, hCTLA4-His-BAP (human)
Assay: IgG ELISA, 2.5 ug/mL IgG, 1 mM AMP; overflow set to 5.00

450 nm Absorbance | Binder
> 5 | B3
> 5 | B6
> 5 | B7

Biological target: human FcγRIIb extracellular domain with C-terminal His-tag (human) (UniProt P31994)
Assay: SPR; binding amount / that of 04H1637-G1m/04L1610-lam1

Relative binding amount | Binder
3.1 | B14
2.8 | B15
3.2 | B16
